94 variants from the supplement of paper PMC10567573 can be followed below.

To fix the notation:
B1: SPRY1 (parent)
chain: WIHRPGCRCKNSNTVYCKLESCPS
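Also: lentivirally expressed fusions sorted by FACS into six bins by GFP to DsRed ratio, PSI derived from sequencing read proportions per bin multiplied by bin number.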

This data set covers variants of B1. In words: protein stability index of a GFP-peptide fusion (GPS, HEK-293T) (PSI 1-6); higher = more stable. The conditions noted are these: c terminus: a fixed tail appended.
For the variant WIHRPGCRCKFSNTVYCKLESCPS, the protein stability index is 2.42. Next, WIHRPGCRCKKSNTVYCKLESCPS: 2.19; WIHRPGCRCKGSNTVYCKLESCPS: 2.15. As for WIHRPGCRCKHSNTVYCKLESCPS, the figure is 2.52; as for WIHRPGCRCKRSNTVYCKLESCPS, 4.1; as for WIHRPGCRCKNMNTVYCKLESCPS, 2.33. As for WIHRPGCRCKNQNTVYCKLESCPS, the figure is 2.14; as for WIHRPGCRCKNFNTVYCKLESCPS, 2.1. For WIHRPGCRCKNVNTVYCKLESCPS, the protein stability index came to 2.2. As for WIHRPGCRCKNHNTVYCKLESCPS, the figure is 1.4; as for WIHRPGCRCKNTNTVYCKLESCPS, 2.28. As for WIHRPGCRCKNSNTVYFKLESCPS, the figure is 2.98; as for WIHRPGCRCKNSNTVYNKLESCPS, 1.51.

Turning to WIHRPGCRCKNSNTVYVKLESCPS, the protein stability index is 3.78. As for WIHRPGCRCKNSNTVYSKLESCPS, the figure is 2.13; as for WIHRPGCRCKNSNTVYIKLESCPS, 2.46; as for WIHRPGCRCKNSNTVYTKLESCPS, 1.65. As for WIHRPGCRCKNSNTVYCKLESLPS, the figure is 2.03; as for WIHRPGCRCKNSNTVYCKLESEPS, 2.02; as for WIHRPGCRCKNSNTVYCKLESRPS, 3.31. Consider WIHRPGCRCKNSNTVYCKLESPPS, for which the protein stability index amounted to 2.68. Take WIHRPGCRCKNSNTVYCKLESWPS: the protein stability index was 1.83. As for WIHRPGCRCKNSNTVYCKLESNPS, the figure is 1.9; as for WIHRPGCRCKNSNTVYCKLESSPS, 2.26. As for WIHRPGCRCKNSNTVYCKLESDPS, the figure is 1.98.

Regarding WIHRPGCRCKNSNTVYCKLESHPS, the protein stability index stood at 2.01. With WIHRPGCRCKNSNTVYCKLESCWS, the protein stability index turned out to be 2.35.

As to WIHRPGCRCKNSNTVYCKLESCIS, the protein stability index stood at 1.32. Consider WIHRPGCRCKNSNTVYCKLESCQS, for which the protein stability index was 2.41.

Regarding WIHRPGCRCKNSNTVYCKLESCMS, the protein stability index turned out to be 1.56.

WIHRPGCRCKNSNTVYCKLESCTS: the protein stability index was 1.83.

As to WIFRPGCRCKNSNTVYCKLESCPS, the protein stability index is 1.87.

Regarding WIVRPGCRCKNSNTVYCKLESCPS, the protein stability index came out at 1.72. As for WIQRPGCRCKNSNTVYCKLESCPS, the figure is 2.5; as for WISRPGCRCKNSNTVYCKLESCPS, 3.16; as for WIKRPGCRCKNSNTVYCKLESCPS, 2.13. As for WIDRPGCRCKNSNTVYCKLESCPS, the figure is 3.37.

On to WIYRPGCRCKNSNTVYCKLESCPS, for which the protein stability index worked out at 1.59. Next, MIHRPGCRCKNSNTVYCKLESCPS: 2.88; PIHRPGCRCKNSNTVYCKLESCPS: 3.5; TIHRPGCRCKNSNTVYCKLESCPS: 3.45.

As to YIHRPGCRCKNSNTVYCKLESCPS, the protein stability index came out at 2.13. For the variant WIHRPGCRCKNSNDVYCKLESCPS, the protein stability index stood at 3.07.

As for WIHRPGCRCKNSNAVYCKLESCPS, the protein stability index came out at 2.89. For WIHRPGCRCKNSNKVYCKLESCPS, the protein stability index worked out at 1.92. Consider WIHRPGCRCKNSNYVYCKLESCPS, for which the protein stability index was 1.84. Next, WIHRPGCRCKNSNGVYCKLESCPS: 2.8; WIHRPGCRCKNSNLVYCKLESCPS: 2.08; WIHRPGCRCKNSNPVYCKLESCPS: 1.79.

Consider WIHRPGCRCKNSNWVYCKLESCPS, for which the protein stability index stood at 1.85. As for WIHRPGCRCKNSNHVYCKLESCPS, the figure is 1.99; as for WIHRPGCRCKNSNQVYCKLESCPS, 2.87; as for WIHRPGCRCKNSNCVYCKLESCPS, 2.56. For WIHAPGCRCKNSNTVYCKLESCPS, the protein stability index came to 2.51. Next, WIHDPGCRCKNSNTVYCKLESCPS: 3.73. Consider WIHHPGCRCKNSNTVYCKLESCPS, for which the protein stability index is 3.3. As for WIHYPGCRCKNSNTVYCKLESCPS, the figure is 3.18. Next, WIHKPGCRCKNSNTVYCKLESCPS: 2.34. Next, WIHIPGCRCKNSNTVYCKLESCPS: 2.82. With WIHPPGCRCKNSNTVYCKLESCPS, the protein stability index is 3.03. As for WIHSPGCRCKNSNTVYCKLESCPS, the figure is 3.07.

With WIHTPGCRCKNSNTVYCKLESCPS, the protein stability index was determined as 2.67. As for WIHRPGCRCKNSNTVYCKLESCPW, the figure is 3.62; as for WIHRPGCRCKNSNTVYCKLESCPK, 2.05; as for WIHRPGCRCKNSNTVYCKLESCPA, 2.25.

WIHRPGCRCKNSNTVYCKLESCPI: the protein stability index amounted to 2.29. Next, WIHRPGCRCKNSNTVYCKLESCPD: 3.1; WIHRPGCRCKNSNTVYCKLESCPP: 2.16; WIHRPGCRCKNSNTVYCKLESCPT: 2.1. For WIHRPGCRCKNSNTVYCKLESCPH, the protein stability index was 2.63. With WIHRPGYRCKNSNTVYCKLESCPS, the protein stability index turned out to be 1.45. With WIHRPGVRCKNSNTVYCKLESCPS, the protein stability index turned out to be 1.15. As for WIHRPGGRCKNSNTVYCKLESCPS, the figure is 1.25; as for WIHRPGQRCKNSNTVYCKLESCPS, 1.94; as for WIHRPGPRCKNSNTVYCKLESCPS, 1.4.

On to WIHRPGCRCMNSNTVYCKLESCPS, for which the protein stability index was 1.63. Consider WIHRPGCRCANSNTVYCKLESCPS, for which the protein stability index was found to be 2.33. As for WIHRPGCRCENSNTVYCKLESCPS, the figure is 2.73; as for WIHRPGCRCFNSNTVYCKLESCPS, 1.74; as for WIHRPGCRCNNSNTVYCKLESCPS, 2.75.

Turning to WIHRPGCRCVNSNTVYCKLESCPS, the protein stability index is 2. As for WIHRPGCRCINSNTVYCKLESCPS, the protein stability index was 2.88.

On to WIHRPGCRCPNSNTVYCKLESCPS, for which the protein stability index turned out to be 2.73. As for WIHRPGCRCKNSNTVYCKCESCPS, the figure is 3.1; as for WIHRPGCRCKNSNTVYCKYESCPS, 2.49. As for WIHRPGCRCKNSNTVYCKPESCPS, the figure is 2.01; as for WIHRPGCRCKNSNTVYCKFESCPS, 2.06; as for WIHRPGCRCKNSNTVYCKWESCPS, 2.16. Next, WIHRPGCRCKNSNTVYCKNESCPS: 3.33; WIHRPGCRCKNSNTVYCKLEKCPS: 1.79.

As to WIHRPGCRCKNSNTVYCKLEVCPS, the protein stability index was 2.09. Next, WIHRPGCRCKNSNTVYCKLEMCPS: 1.99; WIHRPGCRCKNSNTVYCKLEFCPS: 2.56; WIHRPGCRCKNSNTVYCKLENCPS: 2.63.
